Source: IntAct's records for PubMed 20095964

B1: Junctophilin-2 (Mus musculus), Q9ET78 (parent)
chain: MSGGRFDFDDGGAYCGGWEGGKAHGHGLCTGPKGQGEYSGSWNFGFEVAGVYTWPSGNTFEGYWSQGKRHGLGIETKGRWLYKGEWTHGFKGRYGIRQSTNSGAKYEGTWNNGLQDGYGTETYADGGTYQGQFTNGMRHGYGVRQSVPYGMAVVVRSPLRTSLSSLRSEHSNGTVAPDSPAADGPMLPSPPVPRGGFALTLLATAEAARPQGLFTRGTLLGRLRRSESRTSLGSQRSRLSFLKSELSSGASDAASTGSLAEGAEGPDDAAAPFDADIDATTTETYMGEWKNDKRSGFGVSERSSGLRYEGEWLDNLRHGYGRTTLPDGHREEGKYRHNVLVKGTKRRVLPLKSSKVRQKVEHGVEGAQRAAAIARQKAEIAASRTSHAKAKAEAAEQAALAANQESNIARTLAKELAPDFYQPGPEYQKRRLLQEILENSESLLEPPERGLGTGLPERPRESPQLHERETPQPEGGPPSPAGTPPQPKRPRPGASKDGLLSPGSWNGEPGGEGSRPATPSDGAGRRSPARPASEHMAIEALQPPPAPSQEPEVAMYRGYHSYAVRTGPPEPPPLEDEQEPEPEPEPEVRRSDSAPPSPVSATVPEEEPPAPRSPVPAKQATLEPKPIVPKAEPKAKARKTEARGLSKAGAKKKGRKEVAQAKEAEVEVEEVPNTVLICMVILLNIGLAILFVHLLT
partner: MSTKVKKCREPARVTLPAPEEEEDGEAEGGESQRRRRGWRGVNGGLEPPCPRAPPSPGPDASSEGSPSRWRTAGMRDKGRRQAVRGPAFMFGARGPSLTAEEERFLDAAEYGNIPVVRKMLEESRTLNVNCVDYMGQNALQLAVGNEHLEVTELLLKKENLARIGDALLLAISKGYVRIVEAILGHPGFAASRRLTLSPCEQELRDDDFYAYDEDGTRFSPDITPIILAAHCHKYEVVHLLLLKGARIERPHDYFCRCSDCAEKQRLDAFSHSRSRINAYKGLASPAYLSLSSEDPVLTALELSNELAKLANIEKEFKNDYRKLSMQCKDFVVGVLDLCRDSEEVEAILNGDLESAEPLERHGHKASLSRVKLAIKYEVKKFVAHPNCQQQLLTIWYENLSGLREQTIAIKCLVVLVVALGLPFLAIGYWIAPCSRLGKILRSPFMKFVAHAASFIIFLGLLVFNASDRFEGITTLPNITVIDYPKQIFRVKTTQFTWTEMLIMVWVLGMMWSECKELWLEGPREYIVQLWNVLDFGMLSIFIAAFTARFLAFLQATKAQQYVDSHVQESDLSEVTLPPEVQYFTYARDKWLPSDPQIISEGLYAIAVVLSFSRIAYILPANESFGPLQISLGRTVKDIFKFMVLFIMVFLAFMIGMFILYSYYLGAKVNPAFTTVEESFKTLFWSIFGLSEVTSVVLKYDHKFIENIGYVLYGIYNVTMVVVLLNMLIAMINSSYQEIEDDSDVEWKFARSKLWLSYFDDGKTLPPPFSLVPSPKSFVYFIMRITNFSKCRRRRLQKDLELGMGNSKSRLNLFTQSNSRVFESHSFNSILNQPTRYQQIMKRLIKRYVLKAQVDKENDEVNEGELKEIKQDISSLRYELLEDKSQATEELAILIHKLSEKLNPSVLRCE

Variants of: B1
Details: with trpc3_mouse Trpc3, Q9QZC1

Variant	effect of a mutation on the interaction
S165F	decreasing interaction
